In the supplement of paper PMC9112550, “Optimization of the antimicrobial peptide Bac7 by deep mutational scanning” (BMC Biology, 2022):

Test system: Escherichia coli TOP10
Experiment: shrunken log2 fold change of peptide-encoding DNA abundance (4.5 h post-induction vs induction); higher = less antimicrobial activity (less host growth inhibition)
Conditions: time post-induction: 4.5 h; library: site-saturation at positions 5, 18, 19, 20
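Note: peptides expressed intracellularly from a pBAD plasmid library in pooled LB shake-flask culture, induced with 0.3% L-arabinose, DNA abundance read by NGS, three biological replicates, DESeq2 with apeglm shrinkage.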

Row | Sequence | shrunken log2 fold change
1 | RRIRTRPPRLPRPRPRPMPSPRP | -0.128
2 | RRIRTRPPRLPRPRPRPEIGPRP | -0.103
3 | RRIRPRPPRLPRPRPRPFQCPRP | -0.0376
4 | RRIRPRPPRLPRPRPRPWVSPRP | 0.0233
5 | RRIRHRPPRLPRPRPRPFVGPRP | -0.31
6 | RRIRPRPPRLPRPRPRPCLIPRP | -0.129
7 | RRIRWRPPRLPRPRPRPPCCPRP | 0.198
8 | RRIRPRPPRLPRPRPRPRWNPRP | 0.115
9 | RRIRYRPPRLPRPRPRPSSNPRP | -0.634
10 | RRIRCRPPRLPRPRPRPCVSPRP | -0.0805
11 | RRIRYRPPRLPRPRPRPPQGPRP | -0.0838
12 | RRIRGRPPRLPRPRPRPWNLPRP | 0.000264
13 | RRIRARPPRLPRPRPRPAGIPRP | 0.156
14 | RRIRNRPPRLPRPRPRPKRRPRP | 0.00183
15 | RRIRNRPPRLPRPRPRPKGVPRP | 2.97
16 | RRIRGRPPRLPRPRPRPFLWPRP | 0.996
17 | RRIRDRPPRLPRPRPRPRVSPRP | 0.223
18 | RRIRRRPPRLPRPRPRPQSRPRP | 0.00841
19 | RRIRHRPPRLPRPRPRPVHWPRP | 0.0039
20 | RRIRKRPPRLPRPRPRPGHEPRP | 0.127
21 | RRIRARPPRLPRPRPRPTIDPRP | 0.301
22 | RRIRWRPPRLPRPRPRPDDAPRP | 0.368
23 | RRIRCRPPRLPRPRPRPWQHPRP | -0.256
24 | RRIRNRPPRLPRPRPRPLVQPRP | -0.28
25 | RRIRERPPRLPRPRPRPSHRPRP | -0.0834

Row | Sequence | shrunken log2 fold change
26 | RRIRTRPPRLPRPRPRPDCMPRP | -0.137
27 | RRIRFRPPRLPRPRPRPDECPRP | -0.399
28 | RRIRSRPPRLPRPRPRPIWYPRP | -0.373
29 | RRIRLRPPRLPRPRPRPYDIPRP | 0.00601
30 | RRIRERPPRLPRPRPRPPGEPRP | 0.439
31 | RRIRRRPPRLPRPRPRPNLFPRP | 0.177
32 | RRIRSRPPRLPRPRPRPMIPPRP | -0.109
33 | RRIRMRPPRLPRPRPRPEFYPRP | -0.056
34 | RRIRTRPPRLPRPRPRPRHWPRP | 0.0182
35 | RRIRTRPPRLPRPRPRPNEFPRP | 0.0177
36 | RRIRARPPRLPRPRPRPYIEPRP | -0.44
37 | RRIRTRPPRLPRPRPRPFVTPRP | -0.298
38 | RRIRIRPPRLPRPRPRPKHNPRP | -0.349
39 | RRIRSRPPRLPRPRPRPTKNPRP | 0.168
40 | RRIRDRPPRLPRPRPRPCSMPRP | -0.0575
41 | RRIRFRPPRLPRPRPRPSYDPRP | -0.0248
42 | RRIRVRPPRLPRPRPRPMKCPRP | -0.00104
43 | RRIRDRPPRLPRPRPRPEKNPRP | 0.489
44 | RRIRQRPPRLPRPRPRPKDCPRP | -0.00225
45 | RRIRERPPRLPRPRPRPNNAPRP | -0.162
46 | RRIRGRPPRLPRPRPRPIVTPRP | 0.583
47 | RRIRFRPPRLPRPRPRPDQGPRP | -0.167
48 | RRIRKRPPRLPRPRPRPKIWPRP | 0.475
49 | RRIRARPPRLPRPRPRPQSIPRP | -0.0868
50 | RRIRKRPPRLPRPRPRPIWQPRP | 0.163

Row | Sequence | shrunken log2 fold change
51 | RRIRCRPPRLPRPRPRPDQQPRP | 0.0369
52 | RRIRGRPPRLPRPRPRPNIMPRP | 0.0649
53 | RRIRVRPPRLPRPRPRPFLAPRP | -0.219
54 | RRIRRRPPRLPRPRPRPNFIPRP | -0.481
55 | RRIRKRPPRLPRPRPRPPHQPRP | 0.61
56 | RRIRCRPPRLPRPRPRPEMHPRP | 0.304
57 | RRIRPRPPRLPRPRPRPKKTPRP | -0.107
58 | RRIRHRPPRLPRPRPRPVEQPRP | 0.0184
59 | RRIRCRPPRLPRPRPRPEPMPRP | 0.176
60 | RRIRSRPPRLPRPRPRPMWIPRP | -0.0694
61 | RRIRIRPPRLPRPRPRPADNPRP | 0.00497
62 | RRIRARPPRLPRPRPRPTYKPRP | -0.23
63 | RRIRHRPPRLPRPRPRPGVCPRP | -0.263
64 | RRIRSRPPRLPRPRPRPIGDPRP | 0.0153
65 | RRIRNRPPRLPRPRPRPMDYPRP | 0.0678
66 | RRIRDRPPRLPRPRPRPMLWPRP | 0.015
67 | RRIRFRPPRLPRPRPRPNFYPRP | -0.212
68 | RRIRPRPPRLPRPRPRPNRIPRP | -0.132
69 | RRIRHRPPRLPRPRPRPVMVPRP | -2.78e-05
70 | RRIRYRPPRLPRPRPRPKFKPRP | -0.319
71 | RRIRWRPPRLPRPRPRPEDYPRP | -0.00903
72 | RRIRFRPPRLPRPRPRPGSEPRP | -0.0634
73 | RRIRIRPPRLPRPRPRPWRNPRP | -0.0466
74 | RRIRGRPPRLPRPRPRPFCSPRP | 0.143
75 | RRIRKRPPRLPRPRPRPKQLPRP | 0.417
